Measurements: IntAct's records for PubMed 35512704

B1: Speckle-type POZ protein (Homo sapiens), O43791 (parent)
chain: MSRVPSPPPPAEMSSGPVAESWCYTQIKVVKFSYMWTINNFSFCREEMGEVIKSSTFSSGANDKLKWCLRVNPKGLDEESKDYLSLYLLLVSCPKSEVRAKFKFSILNAKGEETKAMESQRAYRFVQGKDWGFKKFIRRDFLLDEANGLLPDDKLTLFCEVSVVQDSVNISGQNTMNMVKVPECRLADELGGLWENSRFTDCCLCVAGQEFQAHKAILAARSPVFSAMFEHEMEESKKNRVEINDVEPEVFKEMMCFIYTGKAPNLDKMADDLLAAADKYALERLKVMCEDALCSNLSVENAAEILILADLHSADQLKTQAVDFINYHASDVLETSGWKSMVVSHPHLVAEAYRSLASAQCPFLGPPRKRLKQS
partner: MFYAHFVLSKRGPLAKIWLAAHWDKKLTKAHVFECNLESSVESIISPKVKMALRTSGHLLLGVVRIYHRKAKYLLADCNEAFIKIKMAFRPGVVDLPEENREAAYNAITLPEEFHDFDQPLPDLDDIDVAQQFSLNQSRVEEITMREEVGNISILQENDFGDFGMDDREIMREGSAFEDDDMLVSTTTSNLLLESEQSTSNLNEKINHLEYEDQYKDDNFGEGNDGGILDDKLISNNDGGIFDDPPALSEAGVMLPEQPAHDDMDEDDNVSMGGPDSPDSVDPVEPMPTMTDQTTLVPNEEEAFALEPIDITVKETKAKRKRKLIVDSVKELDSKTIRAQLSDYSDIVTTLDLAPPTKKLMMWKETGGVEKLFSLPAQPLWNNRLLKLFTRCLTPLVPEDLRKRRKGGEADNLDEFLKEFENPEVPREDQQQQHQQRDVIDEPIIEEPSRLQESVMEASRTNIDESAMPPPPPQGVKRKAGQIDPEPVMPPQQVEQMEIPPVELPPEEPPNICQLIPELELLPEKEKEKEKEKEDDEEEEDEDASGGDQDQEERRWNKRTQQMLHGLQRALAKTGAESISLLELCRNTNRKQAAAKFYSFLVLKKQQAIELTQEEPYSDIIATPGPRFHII
B2: Speckle-type POZ protein (Homo sapiens), O43791 (parent)
chain: B1 chain
partner: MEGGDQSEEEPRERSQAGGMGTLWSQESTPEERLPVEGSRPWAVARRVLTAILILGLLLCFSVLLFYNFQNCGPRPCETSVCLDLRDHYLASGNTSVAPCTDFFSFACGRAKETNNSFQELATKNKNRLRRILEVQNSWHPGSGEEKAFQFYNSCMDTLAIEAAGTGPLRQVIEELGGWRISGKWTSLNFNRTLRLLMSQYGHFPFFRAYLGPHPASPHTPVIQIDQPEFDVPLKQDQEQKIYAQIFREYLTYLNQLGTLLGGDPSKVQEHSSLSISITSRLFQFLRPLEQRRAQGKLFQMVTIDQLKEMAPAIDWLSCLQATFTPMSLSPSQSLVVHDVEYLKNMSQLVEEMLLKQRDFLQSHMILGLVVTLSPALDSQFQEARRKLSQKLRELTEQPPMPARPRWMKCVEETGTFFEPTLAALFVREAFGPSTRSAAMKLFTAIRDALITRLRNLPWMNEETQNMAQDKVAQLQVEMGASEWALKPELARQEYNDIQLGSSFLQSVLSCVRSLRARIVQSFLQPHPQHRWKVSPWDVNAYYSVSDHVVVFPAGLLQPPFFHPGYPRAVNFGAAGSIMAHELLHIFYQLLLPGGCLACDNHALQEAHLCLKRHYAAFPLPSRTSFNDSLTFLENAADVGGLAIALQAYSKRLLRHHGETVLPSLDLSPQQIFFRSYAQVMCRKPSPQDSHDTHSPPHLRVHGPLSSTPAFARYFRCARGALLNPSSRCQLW
B3: Speckle-type POZ protein (Homo sapiens), O43791 (parent)
chain: B1 chain
partner: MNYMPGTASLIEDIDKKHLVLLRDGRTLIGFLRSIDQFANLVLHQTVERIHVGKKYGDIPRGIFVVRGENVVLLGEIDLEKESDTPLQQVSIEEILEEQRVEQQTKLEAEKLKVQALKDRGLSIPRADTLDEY
B4: Speckle-type POZ protein (Homo sapiens), O43791 (parent)
chain: B1 chain
partner: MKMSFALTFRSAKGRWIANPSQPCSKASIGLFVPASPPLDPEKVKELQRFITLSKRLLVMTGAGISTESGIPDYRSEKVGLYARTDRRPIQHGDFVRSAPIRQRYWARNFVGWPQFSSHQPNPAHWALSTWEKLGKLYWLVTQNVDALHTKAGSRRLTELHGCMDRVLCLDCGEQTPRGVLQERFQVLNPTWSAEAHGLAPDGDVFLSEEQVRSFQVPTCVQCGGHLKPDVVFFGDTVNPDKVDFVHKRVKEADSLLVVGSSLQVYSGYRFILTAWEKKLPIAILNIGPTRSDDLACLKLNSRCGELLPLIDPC
B5: Speckle-type POZ protein (Homo sapiens), O43791 (parent)
chain: B1 chain
partner: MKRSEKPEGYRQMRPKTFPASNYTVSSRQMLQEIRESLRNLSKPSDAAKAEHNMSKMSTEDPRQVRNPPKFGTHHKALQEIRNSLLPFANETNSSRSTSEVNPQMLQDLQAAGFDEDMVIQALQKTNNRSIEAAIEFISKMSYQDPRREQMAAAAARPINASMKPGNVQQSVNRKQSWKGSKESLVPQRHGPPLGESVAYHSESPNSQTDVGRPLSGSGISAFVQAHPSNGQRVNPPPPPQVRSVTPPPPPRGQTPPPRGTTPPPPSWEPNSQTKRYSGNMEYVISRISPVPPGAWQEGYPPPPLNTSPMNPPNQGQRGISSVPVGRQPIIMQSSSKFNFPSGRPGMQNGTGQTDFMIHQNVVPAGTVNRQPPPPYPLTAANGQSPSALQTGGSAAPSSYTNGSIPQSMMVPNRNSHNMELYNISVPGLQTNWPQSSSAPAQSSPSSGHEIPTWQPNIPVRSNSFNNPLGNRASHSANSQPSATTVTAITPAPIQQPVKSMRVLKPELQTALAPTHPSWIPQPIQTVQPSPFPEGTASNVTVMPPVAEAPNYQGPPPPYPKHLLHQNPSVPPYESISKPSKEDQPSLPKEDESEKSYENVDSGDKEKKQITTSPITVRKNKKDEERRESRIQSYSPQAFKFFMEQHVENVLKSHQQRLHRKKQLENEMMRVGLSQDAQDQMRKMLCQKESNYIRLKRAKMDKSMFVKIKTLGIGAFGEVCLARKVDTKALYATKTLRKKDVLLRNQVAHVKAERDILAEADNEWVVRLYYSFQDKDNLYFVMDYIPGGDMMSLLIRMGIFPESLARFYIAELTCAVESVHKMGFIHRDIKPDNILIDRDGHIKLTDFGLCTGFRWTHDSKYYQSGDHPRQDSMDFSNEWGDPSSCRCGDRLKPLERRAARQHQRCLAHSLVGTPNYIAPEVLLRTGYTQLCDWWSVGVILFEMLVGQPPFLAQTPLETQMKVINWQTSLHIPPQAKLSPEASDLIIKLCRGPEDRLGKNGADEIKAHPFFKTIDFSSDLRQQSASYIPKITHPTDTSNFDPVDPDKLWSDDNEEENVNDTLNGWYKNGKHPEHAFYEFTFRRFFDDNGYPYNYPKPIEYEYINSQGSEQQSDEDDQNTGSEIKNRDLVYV
B6: Speckle-type POZ protein (Homo sapiens), O43791 (parent)
chain: B1 chain
partner: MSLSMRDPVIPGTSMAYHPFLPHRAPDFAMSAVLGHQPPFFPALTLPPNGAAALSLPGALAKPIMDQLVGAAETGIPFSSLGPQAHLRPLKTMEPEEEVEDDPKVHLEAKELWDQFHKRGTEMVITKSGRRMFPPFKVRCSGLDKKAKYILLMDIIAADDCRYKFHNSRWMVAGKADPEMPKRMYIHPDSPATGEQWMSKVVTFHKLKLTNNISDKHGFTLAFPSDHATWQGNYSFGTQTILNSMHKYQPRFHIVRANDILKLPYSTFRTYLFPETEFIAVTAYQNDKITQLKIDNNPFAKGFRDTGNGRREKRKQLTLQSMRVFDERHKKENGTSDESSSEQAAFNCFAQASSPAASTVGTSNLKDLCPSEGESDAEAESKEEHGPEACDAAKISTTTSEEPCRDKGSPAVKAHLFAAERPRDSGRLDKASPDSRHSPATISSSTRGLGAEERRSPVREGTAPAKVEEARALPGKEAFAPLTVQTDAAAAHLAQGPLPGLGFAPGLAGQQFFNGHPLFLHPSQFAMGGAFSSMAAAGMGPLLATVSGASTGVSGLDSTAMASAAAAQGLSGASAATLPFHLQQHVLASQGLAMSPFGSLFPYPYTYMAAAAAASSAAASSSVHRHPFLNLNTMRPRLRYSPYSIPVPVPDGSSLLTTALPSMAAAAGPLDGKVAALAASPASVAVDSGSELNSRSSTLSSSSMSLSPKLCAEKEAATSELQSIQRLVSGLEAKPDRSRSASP
B7: Speckle-type POZ protein (Homo sapiens), O43791 (parent)
chain: B1 chain
partner: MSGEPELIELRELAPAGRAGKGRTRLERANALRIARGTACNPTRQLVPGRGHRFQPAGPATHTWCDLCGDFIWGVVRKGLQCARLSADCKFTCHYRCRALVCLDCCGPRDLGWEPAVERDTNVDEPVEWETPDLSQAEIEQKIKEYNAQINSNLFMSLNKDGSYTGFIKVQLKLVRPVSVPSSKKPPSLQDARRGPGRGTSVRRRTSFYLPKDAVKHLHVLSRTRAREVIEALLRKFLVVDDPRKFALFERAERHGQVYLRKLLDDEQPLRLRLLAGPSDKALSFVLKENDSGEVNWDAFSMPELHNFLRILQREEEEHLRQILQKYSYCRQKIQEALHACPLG

Variants of: B1
Settings: with rad21_human RAD21, O60216

Row | effect of a mutation on the interaction | Variant
1 | with no effect | F133L

Variants of: B1
Settings: with rad21_human RAD21, O60216
Remark: another data set of the same source

Row | effect of a mutation on the interaction | Variant
2 | with no effect | F133V

Variants of: B1
Settings: with rad21_human RAD21, O60216
Remark: another data set of the same source

Row | effect of a mutation on the interaction | Variant
3 | with no effect | F102C

Variants of: B1
Settings: with rad21_human RAD21, O60216
Remark: another data set of the same source

Row | effect of a mutation on the interaction | Variant
4 | with no effect | Y87C

Variants of: B2
Settings: with kell_human KEL

Row | effect of a mutation on the interaction | Variant
5 | with no effect | F133L

Variants of: B2
Settings: with kell_human KEL
Remark: another data set of the same source

Row | effect of a mutation on the interaction | Variant
6 | with no effect | F133V

Variants of: B2
Settings: with kell_human KEL
Remark: another data set of the same source

Row | effect of a mutation on the interaction | Variant
7 | with no effect | Y87C

Variants of: B3
Settings: with lsm1_human LSM1, O15116

Row | effect of a mutation on the interaction | Variant
8 | with no effect | Y87C

Variants of: B3
Settings: with lsm1_human LSM1, O15116
Remark: another data set of the same source

Row | effect of a mutation on the interaction | Variant
9 | with no effect | F133L

Variants of: B4
Settings: with sir4_human SIRT4, Q9Y6E7

Row | effect of a mutation on the interaction | Variant
10 | with no effect | Y87C

Variants of: B4
Settings: with sir4_human SIRT4, Q9Y6E7
Remark: another data set of the same source

Row | effect of a mutation on the interaction | Variant
11 | with no effect | F102C

Variants of: B4
Settings: with sir4_human SIRT4, Q9Y6E7
Remark: another data set of the same source

Row | effect of a mutation on the interaction | Variant
12 | with no effect | F133L

Variants of: B4
Settings: with sir4_human SIRT4, Q9Y6E7
Remark: another data set of the same source

Row | effect of a mutation on the interaction | Variant
13 | with no effect | F133V

Variants of: B5
Settings: with lats1_human LATS1, O95835

Row | effect of a mutation on the interaction | Variant
14 | with no effect | F133V

Variants of: B5
Settings: with lats1_human LATS1, O95835
Remark: another data set of the same source

Row | effect of a mutation on the interaction | Variant
15 | with no effect | F133L

Variants of: B5
Settings: with lats1_human LATS1, O95835
Remark: another data set of the same source

Row | effect of a mutation on the interaction | Variant
16 | with no effect | Y87C

Variants of: B6
Settings: with tbx3_human TBX3, O15119

Row | effect of a mutation on the interaction | Variant
17 | with no effect | F133V

Variants of: B6
Settings: with tbx3_human TBX3, O15119
Remark: another data set of the same source

Row | effect of a mutation on the interaction | Variant
18 | with no effect | F133L

Variants of: B6
Settings: with tbx3_human TBX3, O15119
Remark: another data set of the same source

Row | effect of a mutation on the interaction | Variant
19 | with no effect | F102C

Variants of: B6
Settings: with tbx3_human TBX3, O15119
Remark: another data set of the same source

Row | effect of a mutation on the interaction | Variant
20 | with no effect | Y87C

Variants of: B7
Settings: with rasf1_human RASSF1, Q9NS23

Row | effect of a mutation on the interaction | Variant
21 | with no effect | Y87C

Variants of: B7
Settings: with rasf1_human RASSF1, Q9NS23
Remark: another data set of the same source

Row | effect of a mutation on the interaction | Variant
22 | with no effect | F102C

Variants of: B7
Settings: with rasf1_human RASSF1, Q9NS23
Remark: another data set of the same source

Row | effect of a mutation on the interaction | Variant
23 | with no effect | F133V
